The assay deals with SHIVC109P7 gp140 protein (soluble Env) (HIV-1 subtype C (Env of SHIVC109P7)). The assay is described as follows: native gel or EMSA.

A word on the stoichiometry N: it is a count of units in the complex or per binding partner. Consider “SHIVC109P7 gp140 protein (soluble Env) (domain or fragment)”, for which the stoichiometry N turned out to be 3.

The values above are taken from article PMC11861162.
